For eleven substances, Kd, fold higher affinity than for H2A.Z II K7ac,K13ac and IC50 results are on record in publication PMC7771244.

For assay [1], the target named is 5FW-BPTF (bromodomain of the bromodomain- and PHD finger-containing transcription factor, labelled with 5-fluorotryptophan) (human). Nature of the assay: NMR titration.
Assay [2] has as its target 5FW-CECR2 (bromodomain of CECR2, labelled with 5-fluorotryptophan) (human). Nature of the assay: NMR titration.
Assay [3] has as its target 5FW-labeled BRD2(2) (second bromodomain of BRD2) (human). The assay can be described thus: NMR titration.
The target in assay [4] is 5FW-labeled BRD4(2) (second bromodomain of BRD4) (human) (UniProt O60885). The assay can be described thus: NMR titration.
Assay [5] addresses GST-BPTF (glutathione S-transferase-tagged BPTF, not labeled with fluorine) (human). The assay can be described thus: SPR.
Assay [6] has as its target His9-tagged BPTF bromodomain (human). The assay can be described thus: AlphaScreen or HTRF. On the technique in general: Bead proximity is the source of the signal in Alpha formats.

pIC50, pKd: −log10 of the molar value.

A word on the pKd: it is −log10 of the Kd, conventionally taken in molar units. A higher pKd goes with a small Kd. As a reminder, the pIC50 is the IC50 on a negative log10 scale, so that one unit is a factor of ten. Low readings indicate a large IC50, high ones a small IC50.

The substance “H2A.Z I K4ac,K13ac N-terminal tail peptide” had a pKd in assay [1] of 3.11. Same read-out and setting: the value for “H2A.Z I K4ac,K15ac N-terminal tail peptide” was 3.20. Turning to “H2A.Z I K7ac,K13ac N-terminal tail peptide”, the pKd in assay [1] is 3.28; in assay [2], 3.89; in assay [3], 3.17. The fold higher affinity than for H2A.Z II K7ac,K13ac in assay [3] and in assay [4] was 2 fold each time. “H2A.Z I K11ac,K13ac N-terminal tail peptide” showed a pKd in assay [1] of 2.84. Same read-out and setting: the value for “H2A.Z II K4ac,K7ac N-terminal tail peptide” was 3.18. On the same count and under the same terms, the value for “H2A.Z II K4ac,K11ac N-terminal tail peptide” was 3.12. Same read-out and setting: the value for “H2A.Z II K4ac,K13ac N-terminal tail peptide” was 3.10; that for “H2A.Z II K4ac,K15ac N-terminal tail peptide” was 3.37. The substance “H2A.Z II K7ac,K11ac N-terminal tail peptide” showed a pKd in assay [1] of 3.11.

“H2A.Z II K7ac,K13ac N-terminal tail peptide”: the pKd in assay [5] was 3.71; in assay [1] it was 3.51. Moreover, in assay [6], the pIC50 was 3.08. For “H2A.Z II K11ac,K13ac N-terminal tail peptide”, the pKd in assay [1] is 3.10.
